The results in this text go back to patent publication US20240294632A1 (XL PROTEIN, published 2024).

The target in assay [1] is T1, recombinant Galectin-3 carrying a C173T mutation and a C-terminal Strep-tag II (Homo sapiens (Human), UniProt P17931 2-250).
T1 construct: the wording would also allow that it is the Strep-tag II alone
Put plainly: SPR, PAS-Fab captured by MAb 1.1, Galectin-3 as analyte, single cycle kinetics, 1:1 Langmuir model.

A further assay deals with T2, P/A #1(600) polypeptide.
T2 chain: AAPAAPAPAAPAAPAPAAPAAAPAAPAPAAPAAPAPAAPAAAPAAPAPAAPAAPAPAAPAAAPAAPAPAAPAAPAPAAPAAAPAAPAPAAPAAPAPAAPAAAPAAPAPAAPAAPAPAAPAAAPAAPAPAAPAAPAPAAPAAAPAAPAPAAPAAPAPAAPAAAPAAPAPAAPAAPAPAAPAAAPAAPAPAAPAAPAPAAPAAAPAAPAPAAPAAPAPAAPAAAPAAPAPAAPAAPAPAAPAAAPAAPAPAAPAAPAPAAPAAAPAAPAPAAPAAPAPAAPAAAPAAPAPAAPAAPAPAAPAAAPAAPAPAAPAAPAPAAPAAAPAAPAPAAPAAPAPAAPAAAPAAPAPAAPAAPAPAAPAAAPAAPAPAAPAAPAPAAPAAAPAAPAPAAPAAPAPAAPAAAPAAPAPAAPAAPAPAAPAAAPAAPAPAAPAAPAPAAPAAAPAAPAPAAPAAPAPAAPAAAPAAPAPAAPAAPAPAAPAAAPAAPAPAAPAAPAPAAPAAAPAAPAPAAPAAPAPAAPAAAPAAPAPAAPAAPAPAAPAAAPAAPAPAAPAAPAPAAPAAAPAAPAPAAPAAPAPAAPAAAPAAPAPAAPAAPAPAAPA
The experiment in a line: ELISA, antigen coated, Fab titrated. (In general: ELISA stands for enzyme-linked immunosorbent assay.)

Assay [2] addresses T3, PAS #1(600)-Leptin.
T3 chain: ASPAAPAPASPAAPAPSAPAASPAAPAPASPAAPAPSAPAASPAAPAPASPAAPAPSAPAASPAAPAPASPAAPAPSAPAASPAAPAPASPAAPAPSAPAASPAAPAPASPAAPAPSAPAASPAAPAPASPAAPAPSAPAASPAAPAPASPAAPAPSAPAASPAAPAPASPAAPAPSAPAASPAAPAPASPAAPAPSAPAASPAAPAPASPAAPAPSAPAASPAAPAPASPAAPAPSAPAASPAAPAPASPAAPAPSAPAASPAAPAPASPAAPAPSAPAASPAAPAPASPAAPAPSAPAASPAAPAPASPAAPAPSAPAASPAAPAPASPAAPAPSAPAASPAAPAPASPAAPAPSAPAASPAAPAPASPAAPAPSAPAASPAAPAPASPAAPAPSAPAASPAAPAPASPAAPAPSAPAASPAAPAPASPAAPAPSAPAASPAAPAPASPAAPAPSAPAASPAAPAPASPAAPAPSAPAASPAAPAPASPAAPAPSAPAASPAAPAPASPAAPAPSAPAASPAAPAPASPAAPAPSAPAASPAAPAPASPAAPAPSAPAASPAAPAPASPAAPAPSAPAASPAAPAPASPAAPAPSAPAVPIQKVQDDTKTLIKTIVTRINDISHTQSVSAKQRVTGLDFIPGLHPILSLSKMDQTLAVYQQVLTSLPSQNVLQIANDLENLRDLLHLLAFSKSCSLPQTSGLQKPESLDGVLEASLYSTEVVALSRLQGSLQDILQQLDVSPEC
Put plainly: ELISA, antigen coated, Fab titrated.

Assay [3] concerns the target T4, APSA(200)-IL1Ra.
T4 construct: Fusion protein produced in E. coli; Labelled with DIG-NHS in the MAb capture ELISA
Put plainly: ELISA, antigen coated, Fab titrated.

The target of assay [4] is T5, P/A #1(200)-IL1Ra.
T5 construct: PASylated fusion protein produced in E. coli; Biotinylated for the SPR measurements with Fabs
Put plainly: SPR, biotinylated antigen on CAPture chip, Fab as analyte, 1:1 model. (Surface plasmon resonance follows binding to a sensor surface in real time, without labels.)

Another assay deals with T6, APSA(200)-TrxA.
T6 construct: Biotinylated and immobilised on a biotin CAPture chip; also called thioredoxinA-APSA(200)
The assay is described as above.

The target of another assay is T7, IL1Ra (Kineret/Anakinra) (UniProt P18510 26-177).
T7 construct: Commercial drug product; also called non-PASylated protein version
T7 sequence (P18510 26-177 limits assumed): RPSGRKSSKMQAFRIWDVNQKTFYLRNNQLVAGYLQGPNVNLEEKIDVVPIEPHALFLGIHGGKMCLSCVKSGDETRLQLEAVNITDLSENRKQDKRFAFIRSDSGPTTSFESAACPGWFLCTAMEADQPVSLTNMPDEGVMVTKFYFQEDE
Put plainly: western blot, hybridoma supernatant 1:2000.

Another assay deals with T8, hu4D5-P/A #1(200).
T8 construct: Detected with anti-human kappa light chain antibody in the capture ELISA
The experiment in a line: MAb capture ELISA, hybridoma supernatant on anti-mouse IgG Fc, antigen titrated.

A further assay deals with T9, hu4D5-PAS #1(200).
T9 construct: Detected with anti-human kappa light chain antibody in the capture ELISA
Described as above.

For assay [5], the target named is T4, APSA(200)-IL1Ra. The experiment in a line: SPR, MAb from hybridoma supernatant captured by anti-mouse antibody, antigen as analyte, bivalent analyte model.
For assay [6], the target named is T5, P/A #1(200)-IL1Ra. The description is as above.
Assay [7] has as its target T4, APSA(200)-IL1Ra. The experiment in a line: MAb capture ELISA, hybridoma supernatant on anti-mouse IgG Fc, DIG-labelled antigen titrated.
The next assay has as its target P/A#1(600)-GMCSF. Put plainly: ELISA, Fab titrated on P/A#1(600)-GMCSF (x axis: Fab concentration).
The target of assay [8] is T10, PAS #1(200)-IL1Ra.
T10 construct: PASylated fusion protein produced in E. coli; Biotinylated for the SPR measurements with Fabs
T10 sequence (chain, as listed by the source limits assumed): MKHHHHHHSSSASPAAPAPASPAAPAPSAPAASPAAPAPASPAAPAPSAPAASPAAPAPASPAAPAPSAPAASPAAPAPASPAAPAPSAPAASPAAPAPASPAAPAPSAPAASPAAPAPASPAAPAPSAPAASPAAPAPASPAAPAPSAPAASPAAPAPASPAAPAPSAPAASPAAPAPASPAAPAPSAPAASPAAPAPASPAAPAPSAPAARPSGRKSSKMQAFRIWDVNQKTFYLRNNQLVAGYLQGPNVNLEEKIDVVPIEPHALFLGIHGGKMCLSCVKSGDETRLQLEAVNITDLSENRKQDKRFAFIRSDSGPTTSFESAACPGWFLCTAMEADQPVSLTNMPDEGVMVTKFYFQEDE
Put plainly: SPR, biotinylated antigen on CAPture chip, Fab as analyte, 1:1 model.

Another assay deals with IL1Ra-PAS#1(800). Put plainly: ELISA, Fab titrated on IL1Ra-PAS#1(800) (x axis: Fab concentration).
Sequence of IL1Ra-PAS#1(800) (chain, as listed by the source): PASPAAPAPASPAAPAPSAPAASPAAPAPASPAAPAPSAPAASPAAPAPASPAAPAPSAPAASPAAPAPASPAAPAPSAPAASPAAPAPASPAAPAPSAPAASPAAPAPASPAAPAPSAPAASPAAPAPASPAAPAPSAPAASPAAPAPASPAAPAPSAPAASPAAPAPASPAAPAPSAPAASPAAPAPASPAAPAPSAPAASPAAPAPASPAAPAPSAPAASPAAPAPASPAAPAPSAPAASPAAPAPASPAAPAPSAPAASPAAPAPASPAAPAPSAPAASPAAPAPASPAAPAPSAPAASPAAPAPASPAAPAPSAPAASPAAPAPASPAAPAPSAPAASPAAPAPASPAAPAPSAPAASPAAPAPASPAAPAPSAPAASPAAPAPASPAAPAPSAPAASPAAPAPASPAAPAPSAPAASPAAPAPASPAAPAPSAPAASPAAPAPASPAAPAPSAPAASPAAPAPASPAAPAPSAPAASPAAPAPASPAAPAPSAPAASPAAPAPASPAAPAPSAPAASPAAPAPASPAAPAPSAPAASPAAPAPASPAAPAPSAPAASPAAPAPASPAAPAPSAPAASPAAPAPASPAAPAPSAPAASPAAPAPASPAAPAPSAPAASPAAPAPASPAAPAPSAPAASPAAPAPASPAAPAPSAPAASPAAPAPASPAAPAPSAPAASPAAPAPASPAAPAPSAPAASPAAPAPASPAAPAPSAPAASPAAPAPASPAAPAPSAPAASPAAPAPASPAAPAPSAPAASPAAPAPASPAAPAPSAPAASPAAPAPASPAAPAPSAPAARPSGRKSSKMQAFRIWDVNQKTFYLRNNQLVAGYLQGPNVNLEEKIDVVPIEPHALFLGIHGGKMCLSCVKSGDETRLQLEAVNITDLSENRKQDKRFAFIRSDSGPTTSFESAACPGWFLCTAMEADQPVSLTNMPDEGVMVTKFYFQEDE
The target of assay [9] is T3, PAS #1(600)-Leptin. The experiment in a line: ELISA, Fab titrated on PAS#1(600)-Leptin (x axis: Fab concentration).
Assay [10] deals with T10, PAS #1(200)-IL1Ra. Put plainly: SPR, MAb from hybridoma supernatant captured by anti-mouse antibody, antigen as analyte, bivalent analyte model.
Another assay deals with T11, P/A #1 sequence.
T11 construct: in sentences on specificity it stands for P/A #1 polypeptides in general
T11 peptide: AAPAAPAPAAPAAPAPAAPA
The experiment in a line: ELISA and SPR with Fabs.

In assay [11] the target is T3, PAS #1(600)-Leptin. The experiment in a line: ELISA, Fab titrated on coated PAS#1(600)-Leptin.

Where a chain is given by its changes, count along the chain named.

T1 sequence (P17931 other isoform, or with tags, fused parts or gaps C173T C173T limits assumed): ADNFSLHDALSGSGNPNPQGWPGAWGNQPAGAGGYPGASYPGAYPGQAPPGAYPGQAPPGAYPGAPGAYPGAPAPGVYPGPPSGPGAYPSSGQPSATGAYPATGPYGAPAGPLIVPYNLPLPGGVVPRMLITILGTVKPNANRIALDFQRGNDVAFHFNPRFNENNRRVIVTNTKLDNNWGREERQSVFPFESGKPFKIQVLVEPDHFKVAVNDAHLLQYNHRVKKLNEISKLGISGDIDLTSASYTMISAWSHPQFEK
Sequence of P/A#1(600)-GMCSF (fusion protein, as listed by the source): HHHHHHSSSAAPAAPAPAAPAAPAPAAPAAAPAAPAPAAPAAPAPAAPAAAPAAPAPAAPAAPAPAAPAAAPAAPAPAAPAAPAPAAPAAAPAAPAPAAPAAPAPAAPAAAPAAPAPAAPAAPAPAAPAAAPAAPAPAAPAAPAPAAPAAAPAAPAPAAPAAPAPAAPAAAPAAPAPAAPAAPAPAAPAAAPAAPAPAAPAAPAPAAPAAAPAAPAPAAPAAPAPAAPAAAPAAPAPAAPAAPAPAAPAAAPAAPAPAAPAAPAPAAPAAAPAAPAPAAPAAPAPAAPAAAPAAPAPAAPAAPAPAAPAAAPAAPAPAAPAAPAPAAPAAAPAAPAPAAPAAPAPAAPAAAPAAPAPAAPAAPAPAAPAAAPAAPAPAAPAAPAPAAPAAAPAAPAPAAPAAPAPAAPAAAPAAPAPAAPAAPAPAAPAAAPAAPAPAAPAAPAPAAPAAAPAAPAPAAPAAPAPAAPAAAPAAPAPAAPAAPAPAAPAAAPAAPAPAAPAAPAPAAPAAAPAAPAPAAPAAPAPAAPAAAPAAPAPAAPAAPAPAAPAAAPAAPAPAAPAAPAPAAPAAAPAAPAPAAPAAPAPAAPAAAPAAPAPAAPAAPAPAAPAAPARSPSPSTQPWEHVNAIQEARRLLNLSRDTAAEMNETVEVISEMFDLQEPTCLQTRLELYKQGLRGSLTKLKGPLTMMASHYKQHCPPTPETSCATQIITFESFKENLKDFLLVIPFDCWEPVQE

B1: anti-Galectin-PAS(200) Fab fragment (Fab)
chain 1: QIQLVQSGAEVKKPGESLKISCKVSGYTFTDYAIHWVRQMPGKGLKWMGWINTYTGKPIYADDFKGQVIISLDKSINTAYLQWSSLKASDTAIYYCARGTMMASLDYWGQGTTVTVSSASTKGPSVFPLAPSSKSTSGGTAALGCLVKDYFPEPVTVSWNSGALTSGVHTFPAVLQSSGLYSLSSVVTVPSSSLGTQTYICNVNHKPSNTKVDKKVEPKSCHHHHHH
chain 2: DVVMTQSPSSLSASVGDRVTITCKSSQSLVHSDGKTYLSWIQQKPGKAPKGLIYLVSKLDSGVPSRFSGSGSETDFTLTISSLQPEDSATYYCWQATHFPLTFGPGTKLEIKRTVAAPSVFIFPPSDEQLKSGTASVVCLLNNFYPREAKVQWKVDNALQSGNSQESVTEQDSKDSTYSLSSTLTLSKADYEKHKVYACEVTHQGLSSPVTKSFNRGECASPAAPAPASPAAPAPSAPAASPAAPAPASPAAPAPSAPAASPAAPAPASPAAPAPSAPAASPAAPAPASPAAPAPSAPAASPAAPAPASPAAPAPSAPAASPAAPAPASPAAPAPSAPAASPAAPAPASPAAPAPSAPAASPAAPAPASPAAPAPSAPAASPAAPAPASPAAPAPSAPAASPAAPAPASPAAPAPSAPAA
notes: also called PASylated humanized anti-Galectin Fab fragment; PAS-Fab
As for B1, in [1], the Kd was 0.0038 nM; the koff (in general, the first-order rate constant of dissociation) came to 3e-05 s⁻¹; the kon (as a rule, the rate constant with which the complex forms) turned out to be 7.9e+06 M⁻¹ s⁻¹.

B2: Fab fragment of Anti-PA(S) MAb 3.2 (Fab, V domains shown)
VH: QVQLQQSGAELVRPGASVKLSCKALGYTFTDYEMFWVKQTPVHGLECIGTIHPGSGGTAYNQKFKGKATLTADKSSSTAYMELSSLTSEDSAVYYCTRNDRGSWGQGTTLTVSS
VL: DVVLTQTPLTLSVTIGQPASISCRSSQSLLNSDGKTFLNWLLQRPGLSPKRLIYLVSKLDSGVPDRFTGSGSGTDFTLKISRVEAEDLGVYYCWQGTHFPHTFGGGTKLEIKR
notes: also called Anti-PA(S) MAb 3.2 Fab; anti-APSA antibody fragment
On to B2, for which the Kd in the assay with P/A #1(600) polypeptide is 48 nM; with PAS #1(600)-Leptin [2] it was 311 nM; with APSA(200)-IL1Ra [3] it was 1.6 nM; with P/A #1(200)-IL1Ra [4] it was 446 nM; with APSA(200)-TrxA, 137 nM.

B3: Anti-PA(S) MAb 3.2 (antibody, V domains shown)
VH: B2 VH
VL: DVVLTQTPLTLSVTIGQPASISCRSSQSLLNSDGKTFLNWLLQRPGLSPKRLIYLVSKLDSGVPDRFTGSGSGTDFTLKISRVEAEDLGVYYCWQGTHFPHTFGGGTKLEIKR
notes: Mouse monoclonal IgG from hybridoma (culture supernatant)
Turning to B3, the binding result with IL1Ra (Kineret/Anakinra) is on record as “no binding”. For the same molecule, the Kd with hu4D5-P/A #1(200) is 0.4 nM; with hu4D5-PAS #1(200), 294 nM; with APSA(200)-IL1Ra [5], 0.108 nM; in the assay with P/A #1(200)-IL1Ra [6], 20 nM; with APSA(200)-IL1Ra [7] it was 0.251 nM.

B4: Fab fragment of Anti-PA(S) MAb 2.1 (Fab, V domains shown)
VH: QVTLKESGPGILQPSQTLSLTCSFSGFSLSTYDMGVGWIRQPSGKGLEWLANIWWNDNKYYNSALKSRLTISKDTSNNQVFLKISSVDATDTATYYCAQMRDNYGVWFAFWGQGTLVTVSA
VL: DIVMSQSPSSLAVSVGEKVTMSCKSSQSLFYSNREKNYLAWYQQKPGQSPKLLIYWASTRESGVPDRFTGSGSGTDFTLTISNVKAEDLAVYYCQQYYNYPTFGAGTKLELKR
notes: also called Anti-PA(S) MAb 2.1 Fab; anti-P/A #1 Fab
On to B4, for which the Kd in the assay with P/A #1(600) polypeptide came out at 2 nM; with PAS #1(600)-Leptin [2], 2.2 nM; with PAS #1(200)-IL1Ra [8], 4.4 nM; with P/A #1(200)-IL1Ra [4], 648 nM. Besides, the concentration giving a half-maximal response (EC50 (read off the curve)) – broadly, the concentration giving half of the maximal effect – in the assay with P/A#1(600)-GMCSF is ~1 nM; with IL1Ra-PAS#1(800), ~2 nM; with PAS #1(600)-Leptin [9], ~2 nM.

B5: Anti-PA(S) MAb 2.2 (antibody, V domains shown)
VH: QVTLKESGPGILQPSQTLSLTCSFSGFSLNTYGMGVGWIRQPSGKGLEWLANIWWTDDKYYNSVLKSRLTISKDTFNNQVFLKISSVDTADTATYYCAQLAYHDNPWFAYWGQGTLVTVSA
VL: B4 VL with M21L, F30L, R34N, E35Q, N83S, A105G, L111I
notes: Mouse monoclonal IgG from hybridoma (culture supernatant); also called 3F3E2
Consider B5, for which, in the assay with IL1Ra (Kineret/Anakinra), the binding result was “no binding”. For the same molecule, the Kd with hu4D5-P/A #1(200) amounted to 69 nM; with PAS #1(200)-IL1Ra [10], 22 nM; with P/A #1(200)-IL1Ra [6], 1.1 nM.

B6: Fab fragment of Anti-PA(S) MAb 2.2 (Fab, V domains shown)
VH: B5 VH
VL: B4 VL with M21L, F30L, R34N, E35Q, N83S, A105G, L111I
notes: also called Anti-PA(S) MAb 2.2 Fab; anti-P/A #1 MAb 2.2 Fab
Turning to B6, the Kd in the assay with P/A #1(600) polypeptide is 8 nM; in the assay with P/A #1(200)-IL1Ra [4], 7000 nM.

B7: Fab fragment of Anti-PA(S) MAb 1.1 (Fab, V domains shown)
VH: QVQLKESGPGLVAPSQSLSITCTVSGFSLTGYGVNWVRQPPGKGLEWLGMIWGDGITDYNSALKSRLSISKDNSKSQVFLKMNSLQTDDTARYYCARDYYGRRYYAMDYWGQGTSVTVSS
VL: DIVLTQSPASLAVSLGQRATISCRASKSVSSSGYNYMFWYQQKPGQPPKLLIYLASNLESGVPDRFWGSGSGTDFTLNIHPVEEEDAATYYCQHSRELPLTFGAGTKLELKR
notes: flanking restriction sites were introduced for subcloning; also called Anti-PA(S) MAb 1.1 Fab; anti-PAS #1 Fab
On to B7, for which the Kd with PAS #1(600)-Leptin [2] came to 23 nM; in the assay with PAS #1(200)-IL1Ra [8], 8800 nM. Also, in the assay with P/A #1 sequence, the binding result was “no binding”. Besides, the “EC50 (read off the curve)” value in the assay with PAS #1(600)-Leptin [11] is ~10 nM.
